Reference: the supplement of paper PMC10724198
± gives the standard deviation of the averaged measurements.

Tested on: Saccharomyces cerevisiae
Experiment: protein stability index of tFT-peptide fusion (C-terminal peptide) (PSI (0-1 scale)); higher = more stable (slower turnover)
Conditions: genetic background: wild type; temperature: 30 C
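Also: PSI is a weighted mean of sequencing reads over stability bins, variants kept only with over 10 reads, mCherry proximal and sfGFP distal, peptide attached via GGGS linker.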

Sequence	protein stability index
FNFSSGLTGSWL	0.763 ± 0.024
RAADGWGVLCGV	0.679 ± 0.095
SRSPPVLTRHKL	0.824 ± 0.058
EKKKKTKKEKKK	0.677 ± 0.0082
VCPPSPTLKPPP	0.624 ± 0.011
PVVDVRFSFRCL	0.644 ± 0.038
DHRGSIWWAGSG	0.702 ± 0.0034
RVWFWSGRGGEF	0.709 ± 0.1
QCNYCVQNLSSR	0.695 ± 0.019
PICCPLILTRSL	0.706 ± 0.019
FPRVTGTKPPPA	0.7201 ± 0.0023
NSRASHPTNQII	0.789 ± 0.054
GVCSWLVFGGWA	0.684 ± 0.056
QSHALSLRKGMP	0.681 ± 0.052
GFRGILFPVGRS	0.736 ± 0.03
IGLKKVVKIRKD	0.614 ± 0.039
PLFSASLFSLSL	0.747 ± 0.068
RIDHYIFYVNAV	0.675 ± 0.017
VTTPHPPAPPPP	0.765 ± 0.02
YTSFGSSLIPTT	0.652 ± 0.074
LWRSRSCSGHSF	0.651 ± 0.053
RMGWSGKVGVVG	0.78 ± 0.11
GGGAGVTLSADG	0.682 ± 0.059
TSSASVCASSVQ	0.588 ± 0.023

Sequence	protein stability index
GFACRSGSFWST	0.848 ± 0.15
SPLPPPPSRPPR	0.794 ± 0.032
QVLIKKRNIKKK	0.651 ± 0.076
KGKTARDVLLLV	0.58 ± 0.013
VFLILKPRDLTE	0.667 ± 0.01
PRRPPPPRARFP	0.723 ± 0.026
MGIKSCSSTCVT	0.857 ± 0.2
KNKVTRNEKGIT	0.639 ± 0.047
MGTRRVGRQGWG	0.708 ± 0.031
DKLDKKTLYLRK	0.729 ± 0.061
NGLLRPALVPNY	0.693 ± 0.012
SENEGEGIYVRM	0.672 ± 0.065
SPLPPTPPPISP	0.6721 ± 0.00083
LPPAPPLPPPPT	0.683 ± 0.044
ILYNIEKQQSSV	0.683 ± 0.032
ASLPPLSPPSSL	0.71 ± 0.045
PITSPPQVLLQH	0.686 ± 0.033
IPHHFSPPLPSP	0.772 ± 0.082
VGLRPPRPAPPS	0.623 ± 0.035
PPLPPLPSPLPL	0.674 ± 0.014
GGGGSGGAGGGG	0.641 ± 0.0089
YKGNVRNPTLHA	0.655 ± 0.05
PPHPPPLLPFSI	0.764 ± 0.009
SQFLRPSAVAPS	0.642 ± 0.037

Sequence	protein stability index
SEDLSNNMKQDI	0.688 ± 0.026
RAGFSEPCGSFS	0.668 ± 0.046
GLGLGLSGGAML	0.665 ± 0.069
KKGSSKKKKPVE	0.6581 ± 0.0062
GRGEGVDRSSRR	0.703 ± 0.017
PSTRPMLRSQQK	0.66 ± 0.013
AGWGWGARQGAL	0.659 ± 0.037
SSSTPPVHVPIS	0.647 ± 0.083
SLEWVGGRRWPI	0.731 ± 0.014
GCVDRSSHNALC	0.632 ± 0.037
TCLMLSCRSFLW	0.63 ± 0.018
KGQIVIDTKGGG	0.609 ± 0.053
DGKTKKKTRSLR	0.652 ± 0.034
LWGAGAGPEDVG	0.6983 ± 0.0028
RRGASWDEDAGS	0.719 ± 0.0086
SRGLPAPASRYC	0.713 ± 0.015
GWDFRERLGGSG	0.71 ± 0.028
GRSAYRESGRRV	0.675 ± 0.04
PPPPPPFPSSPP	0.698 ± 0.013
SSSPTPLPRSLP	0.671 ± 0.024
QTIKKKKKDKKN	0.764 ± 0.011
KKRRNRIKKSAK	0.689 ± 0.14
VGRLGPMVGLLL	0.6 ± 0.083
QPHPPRAVLTGP	0.6975 ± 0.005

Sequence	protein stability index
EINEKPGINKKI	0.6587 ± 0.0028
FQAERTGVTRAR	0.666 ± 0.0078
MCWFDVSEWGLG	0.754 ± 0.091
VKKHRQTNGMVY	0.739 ± 0.018
KKEQKSKTEMRK	0.7124 ± 0.0037
TEIKILNKKKSR	0.7294 ± 0.0043
PGRYTDCCLPNR	0.682 ± 0.022
EWRDSCLLKWWV	0.725 ± 0.015
RVGRKGRRRGSR	0.767 ± 0.07
WGVGCVRGVWGA	0.714 ± 0.088
FSILYLLPPGPL	0.663 ± 0.092
PPSPPTPPPPLP	0.66 ± 0.0085
LSLHCIYQQIFR	0.822 ± 0.12
VGAWGLMLASVV	0.5698 ± 0.0055
LPPSPHPPLPHL	0.886 ± 0.011
PRAANRWASKAL	0.6941 ± 0.0069
SPPLSPPLPSRP	0.7016 ± 0.0064
GGGPPARRRRGA	0.652 ± 0.023
VKVYHVPSTFSV	0.681 ± 0.029
KQERCCEEREEK	0.729 ± 0.024
LRVVCVVGQRSL	0.554 ± 0.0094
GPWGGRLSWAPG	0.636 ± 0.0092
VCSLSCVGIWYW	0.625 ± 0.0039
ALEAAWGGLGGS	0.695 ± 0.013

Sequence	protein stability index
PLSTPPPLLLTP	0.719 ± 0.12
TGNARCYFGKSV	0.692 ± 0.011
NTTQKKKGGRKA	0.747 ± 0.15
LPPARRHPSVYR	0.669 ± 0.064
PPPLPPPLILTP	0.643 ± 0.054
SDFAPTRPPPAP	0.634 ± 0.051
ARLPCVVFLLDE	0.666 ± 0.036
GWNGAGSGCVRA	0.659 ± 0.068
GGWRGRAGENTR	0.698 ± 0.036
LHRFYVGQLVVN	0.522 ± 0.0092
CKHPAWFQPRVG	0.618 ± 0.044
PLPPPHSPPPSA	0.677 ± 0.011
IRKEKREKKSSH	0.702 ± 0.069
PARLLIEFPSYS	0.684 ± 0.021
EKESERGREKDS	0.747 ± 0.12
PPPPPRPPPPAP	0.5949 ± 0.0051
KREARGERGKGE	0.644 ± 0.04
RGVCGVGLYTGG	0.657 ± 0.02
FSNLVSAHFGLL	0.666 ± 0.042
LLSCLDILFFFI	0.609 ± 0.016
ENEKKKKNKNKN	0.7 ± 0.049
